According to article PMC8155523, “Non-covalent Interaction With SUMO Enhances the Activity of Human Cytomegalovirus Protein IE1” (Frontiers in Cell and Developmental Biology, 2021):

Biological target: T1, SUMO1 (UniProt P63165 1-97)
T1 construct: SUMO1, expressed from SUMO1-pQE80L; Uniformly 15N-labelled for NMR; Plasmid obtained from Rama Koti, TIFR, Mumbai; also called 15N-SUMO1; 15N-wt-SUMO1; source: E. coli BL21 (DE3), 15NH4Cl-M9 medium, purified (Ni-NTA, Superdex 75)
Assay: NMR titration; IE1-SIM peptides titrated into ~0.3 mM 15N-SUMO1 or 15N-SUMO2 up to 1:4 (SUMO:SIM); 15N-HSQC, 298K, 800 MHz; PBS, 5 mM DTT, 10% D2O; CSPs fit to a 1:1 model
Details: both partners purified

T1 sequence (P63165 1-97): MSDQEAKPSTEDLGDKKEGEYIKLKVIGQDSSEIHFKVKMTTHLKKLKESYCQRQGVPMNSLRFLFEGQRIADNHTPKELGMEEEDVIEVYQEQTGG

B1: IE1-SIM1 peptide (peptide)
peptide: RPLITKPEVISVMKRRIEE
notes: Human Cytomegalovirus Immediate-Early protein 1 (IE1), peptide around SIM1 (VISV, aa 335-338); source: synthetic peptide (Lifetein)
Kd: 134 ± 23.2 µM

B2: IE1-SIM2 peptide (peptide)
peptide: PATIPLSSVIVAENSDQEE
notes: Human Cytomegalovirus Immediate-Early protein 1 (IE1), peptide around SIM2 (VIVA, aa 416-419); source: synthetic peptide (Lifetein)
Kd: 136 ± 32 µM
